# According to PMC12985673:
# B1: full-length neuroligin 2 (NL2), mouse, without the splice insert at site A, Q69ZK9 H279Y; G282K (protein)
# chain: MWLLALCLVGLAGAQRGGGGPGGGAPGGPGLGLGSLGEERFPVVNTAYGRVRGVRRELNNEILGPVVQFLGVPYATPPLGARRFQPPEAPASWPGVRNATTLPPACPQNLHGALPAIMLPVWFTDNLEAAATYVQNQSEDCLYLNLYVPTEDGPLTKKRDEATLNPPDTDIRDSGKKPVMLFLHGGSYMEGTGNMFDGSVLAAYGNVIVVTLNYRLGVLGFLSTGDQAAKGNYGLLDQIQALRWLSENIAHFGGDPERITIFGSGAGASCVNLLILSHYSEKLFQKAIAQSGTAISSWSVNYQPLKYTRLLAAKVGCDREDSTEAVECLRRKSSRELVDQDVQPARYHIAFGPVVDGDVVPDDPEILMQQGEFLNYDMLIGVNQGEGLKFVEDSAESEDGVSASAFDFTVSNFVDNLYGYPEGKDVLRETIKFMYTDWADRDNGEMRRKTLLALFTDHQWVAPAVATAKLHADYQSPVYFYTFYHHCQAEGRPEWADAAHGDELPYVFGVPMVGATDLFPCNFSKNDVMLSAVVMTYWTNFAKTGDPNQPVPQDTKFIHTKPNRFEEVVWSKFNSKEKQYLHIGLKPRVRDNYRANKVAFWLELVPHLHNLHTELFTTTTRLPPYATRWPPRTPGPGTSGTRRPPPPATLPPESDIDLGPRAYDRFPGDSRDYSTELSVTVAVGASLLFLNILAFAALYYKRDRRQELRCRRLSPPGGSGSGVPGGGPLLPTAGRELPPEEELVSLQLKRGGGVGADPAEALRPACPPDYTLALRRAPDDVPLLAPGALTLLPSGLGPPPPPPPPSLHPFGPFPPPPPTATSHNNTLPHPHSTTRV
# Molecular target: NRXβ1 ECD (amino acids 81 to 311), His-tagged, labelled with Alexa Fluor 488, P0DI97
# Sequence (P0DI97 other isoform, or with tags, fused parts or gaps): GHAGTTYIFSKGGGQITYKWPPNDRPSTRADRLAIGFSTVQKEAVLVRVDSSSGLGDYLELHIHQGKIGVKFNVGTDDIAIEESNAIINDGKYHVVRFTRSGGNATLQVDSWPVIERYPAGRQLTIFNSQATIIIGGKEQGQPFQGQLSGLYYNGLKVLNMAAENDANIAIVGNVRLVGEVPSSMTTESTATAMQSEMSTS
# Assay: fluorescence polarisation
# Conditions: chain shown with the change; Hill equation fit, shared slope n = 1.05 ± 0.05; NL2 concentration 0-8 µM; parent: 6.2 ± 0.4 µM
binder,measurement,value
B1,Kd,320 nM
